The values that follow come from paper PMC7101348, “Modulation of BIN2 kinase activity by HY5 controls hypocotyl elongation in the light” (Nature Communications, 2020).

The target of assay [1] is T1, His-BIN2 (full-length BIN2) (Arabidopsis thaliana, UniProt Q39011 1-380).
T1 sequence (looked up): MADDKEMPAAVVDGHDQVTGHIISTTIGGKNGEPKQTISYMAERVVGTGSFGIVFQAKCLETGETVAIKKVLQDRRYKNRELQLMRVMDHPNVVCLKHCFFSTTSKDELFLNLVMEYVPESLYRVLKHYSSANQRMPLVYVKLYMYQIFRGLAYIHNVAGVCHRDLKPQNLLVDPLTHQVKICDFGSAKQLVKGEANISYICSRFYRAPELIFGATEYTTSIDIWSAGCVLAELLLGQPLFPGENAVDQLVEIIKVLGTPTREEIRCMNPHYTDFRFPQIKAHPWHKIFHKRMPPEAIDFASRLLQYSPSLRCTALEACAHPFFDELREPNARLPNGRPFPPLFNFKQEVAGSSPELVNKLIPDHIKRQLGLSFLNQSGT
Description: cell-based or functional assay.

Assay [2] concerns the target T1, His-BIN2 (full-length BIN2). The assay can be described thus: pull-down; 1 μg GST-HY5 and 1 μg His-BIN2 in 1 ml binding buffer (25 mM Tris-Cl pH 7.5, 100 mM NaCl, 0.1% NP40), 4 °C; GST beads; washed with 25 mM Tris-Cl pH 7.5, 500 mM NaCl; blots with anti-GST and anti-His. As to conditions: both partners purified.

Positions count from the first letter of the chain named. In names and notes the source's numbering stands.

B1: GST-HY5 (full-length HY5, HY5-F) (natural protein, Arabidopsis thaliana, UniProt O24646 1-168, looked up)
chain: MQEQATSSLAASSLPSSSERSSSSAPHLEIKEGIESDEEIRRVPEFGGEAVGKETSGRESGSATGQERTQATVGESQRKRGRTPAEKENKRLKRLLRNRVSAQQARERKKAYLSELENRVKDLENKNSELEERLSTLQNENQMLRHILKNTTGNKRGGGGGSNADASL
B1: in assay [1], the “in vitro kinase assay: BIN2-mediated phosphorylation of BZR1 with recombinant full-length HY5 (HY5-F) added, against the control” value was around 2 fold.

B2: GST-HY5-M (HY5 L137D) (natural protein, Arabidopsis thaliana, UniProt O24646 1-168, looked up)
chain: B1 chain with L137D
notes: HY5, Arabidopsis, with Leu137 changed to Asp; Probably full-length HY5; also called mutated HY5; source: recombinant protein, purified
As to B2, the binding result in assay [2] is “binds”.

B3: GST-HY5-C (HY5 aa 78-168) (domain or fragment, Arabidopsis thaliana, UniProt O24646 78-168, looked up)
chain: RKRGRTPAEKENKRLKRLLRNRVSAQQARERKKAYLSELENRVKDLENKNSELEERLSTLQNENQMLRHILKNTTGNKRGGGGGSNADASL
Turning to B3, in assay [1], the “in vitro kinase assay: BIN2-mediated phosphorylation of BZR1 with recombinant C-terminal domain of HY5 (HY5-C) added, against the control” value was around 2 fold.
